# Data as given in patent US20200216495A1 (ADRX, published 2020).
# “And” between values parts separate entries of the source, which are not always exact repeats. Identical values can stand only once. Square brackets hold non-standard residues; d marks the D form. Ends that are not written are not given here.
# B1: kikikw (peptide)
# peptide: [dK][dI][dK][dI][dK][dW]
# B2: arlkvrw (peptide)
# peptide: [dA][dR][dL][dK][dV][dR][dW]
# B3: fhirlrhh (peptide)
# peptide: [dF][dH][dI][dR][dL][dR][dH][dH]
# B4: wrldvrw (peptide)
# peptide: [dW][dR][dL][dD][dV][dR][dW]
# B5: wrlnvnw (peptide)
# peptide: [dW][dR][dL][dN][dV][dN][dW]
# B6: erlkvrw (peptide)
# peptide: [dE][dR][dL][dK][dV][dR][dW]
# B7: fkirikwh (peptide)
# peptide: [dF][dK][dI][dR][dI][dK][dW][dH]
# B8: wrtrihw (peptide)
# peptide: [dW][dR][dT][dR][dI][dH][dW]
# B9: wrlkarw (peptide)
# peptide: [dW][dR][dL][dK][dA][dR][dW]
# B10: lkiriha (peptide)
# peptide: [dL][dK][dI][dR][dI][dH][dA]
# B11: fkielhwh (peptide)
# peptide: [dF][dK][dI][dE][dL][dH][dW][dH]
# B12: wrakvrw (peptide)
# peptide: [dW][dR][dA][dK][dV][dR][dW]
# B13: wrlriww (peptide)
# peptide: [dW][dR][dL][dR][dI][dW][dW]
# B14: fhlkirhh (peptide)
# peptide: [dF][dH][dL][dK][dI][dR][dH][dH]
# B15: wrarihw (peptide)
# peptide: [dW][dR][dA][dR][dI][dH][dW]
# B16: felhikwh (peptide)
# peptide: [dF][dE][dL][dH][dI][dK][dW][dH]
# B17: lkiyihy (peptide)
# peptide: [dL][dK][dI][dY][dI][dH][dY]
# B18: rlkvrw (peptide)
# peptide: [dR][dL][dK][dV][dR][dW]
# B19: rlrirw (peptide)
# peptide: [dR][dL][dR][dI][dR][dW]
# B20: lkiaihy (peptide)
# peptide: [dL][dK][dI][dA][dI][dH][dY]
# B21: wrlriha (peptide)
# peptide: [dW][dR][dL][dR][dI][dH][dA]
# B22: wririrw (peptide)
# peptide: [dW][dR][dI][dR][dI][dR][dW]
# B23: fkleiryh (peptide)
# peptide: [dF][dK][dL][dE][dI][dR][dY][dH]
# B24: wrlriew (peptide)
# peptide: [dW][dR][dL][dR][dI][dE][dW]
# B25: erlkvrww (peptide)
# peptide: [dE][dR][dL][dK][dV][dR][dW][dW]
# B26: wrlkvrww (peptide)
# peptide: [dW][dR][dL][dK][dV][dR][dW][dW]
# B27: wrleihw (peptide)
# peptide: [dW][dR][dL][dE][dI][dH][dW]
# B28: wrlmihw (peptide)
# peptide: [dW][dR][dL][dM][dI][dH][dW]
# B29: lkirihrh (peptide)
# peptide: [dL][dK][dI][dR][dI][dH][dR][dH]
# B30: walrihw (peptide)
# peptide: [dW][dA][dL][dR][dI][dH][dW]
# B31: klklkw (peptide)
# peptide: [dK][dL][dK][dL][dK][dW]
# B32: wklwlrww (peptide)
# peptide: [dW][dK][dL][dW][dL][dR][dW][dW]
# B33: frlwihw (peptide)
# peptide: [dF][dR][dL][dW][dI][dH][dW]
# B34: wrlrthw (peptide)
# peptide: [dW][dR][dL][dR][dT][dH][dW]
# B35: lkifiwyh (peptide)
# peptide: [dL][dK][dI][dF][dI][dW][dY][dH]
# B36: lkirihye (peptide)
# peptide: [dL][dK][dI][dR][dI][dH][dY][dE]
# B37: lkirrhyh (peptide)
# peptide: [dL][dK][dI][dR][dR][dH][dY][dH]
# B38: feirlwhh (peptide)
# peptide: [dF][dE][dI][dR][dL][dW][dH][dH]
# B39: frirlrw (peptide)
# peptide: [dF][dR][dI][dR][dL][dR][dW]
# B40: lkieihy (peptide)
# peptide: [dL][dK][dI][dE][dI][dH][dY]
# B41: wrlrahw (peptide)
# peptide: [dW][dR][dL][dR][dA][dH][dW]
# B42: lkiwiwyh (peptide)
# peptide: [dL][dK][dI][dW][dI][dW][dY][dH]
# B43: wnlnvrw (peptide)
# peptide: [dW][dN][dL][dN][dV][dR][dW]
# B44: wkvhiqhw (peptide)
# peptide: [dW][dK][dV][dH][dI][dQ][dH][dW]
# Target: Tau40 P301L protein (human)
# Assay: cell-based or functional assay
row,"IC50, Tau40 assay (ThT)",Binder
1,2.92 µM,B1
2,3.23 µM,B2
3,3.21 µM and 4.3 µM,B3
4,3.13 µM,B4
5,3.23 µM,B5
6,3.07 µM,B6
7,3.06 µM and 5.46 µM,B7
8,3.23 µM,B8
9,3.23 µM,B9
10,2.92 µM,B10
11,3.37 µM and 3.44 µM,B11
12,3.23 µM,B12
13,3.06 µM,B13
14,3.29 µM and 3.36 µM,B14
15,3.33 µM,B15
16,3.11 µM,B16
17,2.93 µM,B17
18,3.38 µM and 3.59 µM and 3.81 µM and 4.79 µM,B18
19,2.96 µM,B19
20,2.96 µM,B20
21,3.23 µM,B21
22,3 µM,B22

row,"IC50, Tau40 assay (ThT)",Binder
1,3.38 µM,B23
2,3.23 µM,B24
3,3.36 µM,B25
4,3.23 µM,B26
5,3.23 µM,B27
6,3.23 µM,B28
7,3.16 µM,B29
8,3.23 µM,B30
9,2.97 µM,B31
10,2.94 µM,B32
11,3.33 µM,B33
12,3.33 µM,B34
13,3.33 µM,B35
14,3.32 µM,B36
15,3.21 µM,B37
16,3.38 µM,B38
17,3.23 µM,B39
18,3.32 µM,B40
19,3.23 µM,B41
20,3.19 µM,B42
21,3.33 µM,B43
22,3.29 µM,B44
